B1: 12F7 (antibody, V domains shown)
VH: QMQLVQSGPEVKKPGSSVKVSCKASGYTFTDYGLSWVRQAPGHGLEWMGWITAYNGDTNYAQKFQDRLSVTTDISTSTAYMELRSLKSDDTAVYYCARHVFCSGDGCYSGLGSWGQGTLVTVSS
VL: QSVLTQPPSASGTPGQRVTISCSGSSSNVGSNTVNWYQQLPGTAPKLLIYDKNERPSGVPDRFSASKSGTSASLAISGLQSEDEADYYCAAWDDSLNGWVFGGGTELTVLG
notes: IgG made in Expi293; also called #38; 38
B2: #40m (antibody, V domains shown)
VH: B1 VH with M2V, P9A, S16A
VL: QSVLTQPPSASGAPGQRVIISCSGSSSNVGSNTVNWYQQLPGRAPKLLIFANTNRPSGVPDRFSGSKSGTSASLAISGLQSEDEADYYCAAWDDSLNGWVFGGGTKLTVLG
notes: Germline-edited (m) form of 4H11, light chain edited; IgG; also called 4H11 (modified)
B3: #41m (antibody, V domains shown)
VH: B1 VH with M2V, P9A, S16A
VL: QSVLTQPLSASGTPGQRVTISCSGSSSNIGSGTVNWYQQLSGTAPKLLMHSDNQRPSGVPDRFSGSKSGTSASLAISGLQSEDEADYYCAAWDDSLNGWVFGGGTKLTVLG
notes: Germline-edited (m) form of 2G3, light chain edited; IgG; also called 2G3 (modified)
B4: #42m (antibody, V domains shown)
VH: B1 VH with M2V, P9S, S16A
VL: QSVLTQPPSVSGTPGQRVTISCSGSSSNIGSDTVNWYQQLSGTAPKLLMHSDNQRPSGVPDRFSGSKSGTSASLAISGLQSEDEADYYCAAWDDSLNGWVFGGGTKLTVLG
notes: Germline-edited (m) form of 12C10, light chain edited; IgG; also called 12C10 (modified)
B5: 2E8 (antibody, V domains shown)
VH: B1 VH with M2V
VL: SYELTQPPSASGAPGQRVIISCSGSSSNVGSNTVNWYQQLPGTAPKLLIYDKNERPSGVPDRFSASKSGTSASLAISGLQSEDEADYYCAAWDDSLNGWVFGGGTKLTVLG
notes: IgG made in Expi293; also called #46; 46
B6: 4H11 (antibody, V domains shown)
VH: B1 VH with M2V, P9A, S16A
VL: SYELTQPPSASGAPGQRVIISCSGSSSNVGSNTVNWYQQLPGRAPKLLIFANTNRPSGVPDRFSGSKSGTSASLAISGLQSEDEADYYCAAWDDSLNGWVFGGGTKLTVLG
notes: IgG made in Expi293; also called #40; 40
B7: #46m (antibody, V domains shown)
VH: B1 VH with M2V
VL: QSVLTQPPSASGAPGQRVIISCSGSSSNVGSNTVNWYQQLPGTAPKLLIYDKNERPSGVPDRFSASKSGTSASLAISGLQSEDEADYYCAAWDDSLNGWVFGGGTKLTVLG
notes: Germline-edited (m) form of 2E8, light chain edited; IgG; also called 2E8 (modified)
B8: 2G3 (antibody, V domains shown)
VH: B1 VH with M2V, P9A, S16A
VL: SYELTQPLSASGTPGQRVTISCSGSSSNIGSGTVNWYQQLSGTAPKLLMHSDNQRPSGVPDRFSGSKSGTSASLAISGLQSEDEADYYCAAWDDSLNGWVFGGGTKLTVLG
notes: IgG made in Expi293; also called #41; 41
B9: 12C10 (antibody, V domains shown)
VH: B1 VH with M2V, P9S, S16A
VL: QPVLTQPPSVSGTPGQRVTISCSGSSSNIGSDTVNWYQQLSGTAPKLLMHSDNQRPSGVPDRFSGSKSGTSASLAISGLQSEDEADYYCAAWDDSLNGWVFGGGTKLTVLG
notes: IgG made in Expi293; also called #42; 42
B10: #45m (antibody, V domains shown)
VH: B1 VH with M2V, P9S, S16A
VL: not shown
notes: Germline-edited (m) form of 4G5, light chain edited; IgG; also called 4G5 (modified)
B11: 4G5 (antibody, V domains shown)
VH: B1 VH with M2V, P9S, S16A
VL: not shown
notes: IgG made in Expi293; also called #45; 45
B12: 3E8 (antibody, V domains shown)
VH: B1 VH with M2V, P9S, S16A
VL: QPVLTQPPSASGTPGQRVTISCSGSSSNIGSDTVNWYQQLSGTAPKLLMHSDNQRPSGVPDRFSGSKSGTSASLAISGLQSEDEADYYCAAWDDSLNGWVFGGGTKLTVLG
notes: IgG made in Expi293; also called #43; 43
B13: #38m (antibody, V domains shown)
VH: B1 VH with M2V, P9A, S16A
VL: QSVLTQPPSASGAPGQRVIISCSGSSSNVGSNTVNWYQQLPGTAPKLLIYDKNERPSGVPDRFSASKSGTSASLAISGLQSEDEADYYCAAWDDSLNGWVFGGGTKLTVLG
notes: Germline-edited (m) form of 12F7, heavy and light chain edited; IgG; also called 12F7 (modified)
B14: 2H11 (antibody, V domains shown)
VH: QVQLVQSGGGLVKPGGSLRLSCAASGFTFTSYRMHWVRQAPGKGLEWVSSITGGGNYIEYADSVKGRFTISRDNAKNSLDLQMNSLRAEDTAIYYCARDMYGLGSYYSPNYFDPWGQGTTVTVSS
VL: QSVLTQPPSVSGAPGQRVTISCTGSSSNIGAGYDVHWYQQLPGRAPKLLIFANTNRPSGVPDRFSGSKSGASASLAISGLQAEDEAHYYCQSYDRSLNVVFGGGTELTVLG
notes: IgG made in Expi293; also called #23; 23
B15: 2G11 (antibody, V domains shown)
VH: B14 VH with Q1E, Q6E, K13Q, T120L
VL: QSVLTQPPSVSGAPGQRVTISCTGSSSNIGAGYDVHWYQQLPGAAPRLLMFGNSNRPSGVPDRFSGSKSGTSASLAITGLQAEDEADYYCQSYDSSLSYVFGTGTKVTVLG
notes: IgG made in Expi293; also called #29; 29
B16: 4G2 (antibody, V domains shown)
VH: B14 VH with Q1E, Q6E, T120L
VL: B15 VL with Y99H
notes: IgG made in Expi293; also called #28; 28
B17: 13C2 (antibody, V domains shown)
VH: B14 VH with Q1E, Q6E, T120L
VL: QSVLTQPPSVSGAPGQRVTISCTGSSSNIGAGYDVHWYQQVPGTAPKLLIFGSTDRPSGVPDRFSGSKSGNTASLTISGLQAEDEADYYCQSYDRSLSHVFGTGTKVTVLG
notes: IgG made in Expi293; also called #25; 25
B18: 2F1 (antibody, V domains shown)
VH: B14 VH with Q1E, Q6E, T120L
VL: QSVLTQPPSVSGAPGQRVTISCTGSSSNIGAGYDVHWYQQVPGTAPKLLIFGSTNRPSGVPDRFSGSKSGASASLAITGLQTEDEADYYCQSYDRSLSAWVFGGGTKLTVLG
notes: IgG made in Expi293; also called #24; 24
B19: 10A6 (antibody, V domains shown)
VH: B14 VH with Q1E, Q6E, P114S, T120L
VL: B15 VL with Q1S, S2Y, V3E
notes: IgG made in Expi293; also called #27; 27
B20: 2H8 (antibody, V domains shown)
VH: B14 VH with Q1E, Q6E, V12A, T120L
VL: B15 VL with S95R, Y99H
notes: IgG made in Expi293; also called #26; 26
B21: #27m (antibody, V domains shown)
VH: B14 VH with Q1E, Q6E, P114S, T120L
VL: B15 VL
notes: Germline-edited (m) form of 10A6, light chain edited; IgG; also called 10A6 (modified)
B22: 13H9 (antibody, V domains shown)
VH: QVQLVQSGAEVKKPGASVKVSCKASGYTGYTFTDYGLSWVRQAPGHGLEWMGWITAYNGDTNYAQKFQDRLSVTTDISTSTAYMELRSLKSDDTAVYYCARHVFCSGDGCYSGLGSWGQGTLVTVSS
VL: SYELIQPPSASGAPGQRVIISCSGSSSNVGSNTVNWYQQLPGTAPKLLIYDKNERPSGVPDRFSASKSGTSASLAISGLQSEDEADYYCAAWDDSLNGWVFGGGTELTVLG
notes: IgG made in Expi293; also called #47; 47
B23: #47m (antibody, V domains shown)
VH: B22 VH
VL: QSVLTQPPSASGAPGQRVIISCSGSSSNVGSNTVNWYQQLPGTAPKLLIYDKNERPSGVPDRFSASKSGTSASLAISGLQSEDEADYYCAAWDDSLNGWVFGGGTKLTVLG
notes: Germline-edited (m) form of 13H9, light chain edited; IgG; also called 13H9 (modified)
B24: 4E3 (antibody, V domains shown)
VH: EVQLVESGGGLVKPGGSLRLSCAGSGFTFSSYTMHWVRQAPGKGLEWVSSITGGSSYVDYSASVKGRFTISRDNAQSSLYLQMNSLRAEDTAVYYCARDDYGSGSYSNWFDPWGQGTLVTVSS
VL: B17 VL with D55N, N71A, T72S, T76A, S78T, E83D
notes: IgG made in Expi293
B25: 4G1 (antibody, V domains shown)
VH: QVTLKESGGGLVKPGGSLRLSCAASGFRLSSYGMNWVRQAPGKGLEWVSSISASSSFINYADSVRDRFTISRDNAKNSLYLQMNSLRAEDTAVYYCARDDYGSGSYSNWFDPWGQGTLVTVSS
VL: QSVLTQPPSVSGAPGQRVTISCTGNSSNLGAGYDVHWYQQLPGRAPKLLIFANTNRPSGVPDRFSGSKSGASASLAITSLQADDEADYYCQSYDRSLSHVFGTGTKVTVLG
notes: IgG made in Expi293; also called #33; 33
B26: 4H5 (antibody, V domains shown)
VH: B24 VH
VL: B15 VL with S95R, Y99H
notes: IgG made in Expi293
B27: #33m (antibody, V domains shown)
VH: B25 VH with Q1E, T3Q, K5V
VL: B25 VL
notes: Germline-edited (m) form of 4G1, heavy chain edited; IgG; also called 4G1 (modified)

Where a chain is given by its changes, count along the chain named.

For orientation: Kd means a measure of binding affinity in units of concentration.

Sequence of DS-Cav1 (RSV F-protein, pre-form, in-house) (P03420 26-524): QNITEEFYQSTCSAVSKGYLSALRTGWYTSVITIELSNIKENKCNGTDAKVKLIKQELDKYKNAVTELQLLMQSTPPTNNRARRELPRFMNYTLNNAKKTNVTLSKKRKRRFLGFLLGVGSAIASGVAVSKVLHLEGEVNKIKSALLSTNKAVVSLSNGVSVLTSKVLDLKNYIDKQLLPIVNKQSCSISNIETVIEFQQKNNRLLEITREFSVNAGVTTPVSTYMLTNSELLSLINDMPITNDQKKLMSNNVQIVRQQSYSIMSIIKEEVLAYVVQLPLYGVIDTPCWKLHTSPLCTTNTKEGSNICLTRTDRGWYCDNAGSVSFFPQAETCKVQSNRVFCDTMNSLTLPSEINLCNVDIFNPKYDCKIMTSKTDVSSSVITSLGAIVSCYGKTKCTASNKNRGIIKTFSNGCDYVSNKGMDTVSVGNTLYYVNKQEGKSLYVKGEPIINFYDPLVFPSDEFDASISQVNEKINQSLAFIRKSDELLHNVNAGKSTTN

The assay has as its target DS-Cav1 (RSV F-protein, pre-form, in-house) (respiratory syncytial virus (RSV), UniProt P03420 26-513). As to the kind of experiment: ELISA, coated DS-Cav1, IgG titrated. (In general: In an ELISA, binding on a coated surface is turned into a signal by an enzyme label.)
In turn, B1 registered an equilibrium dissociation constant (Kd) of roughly 0.27 nM. As for B2, the Kd is roughly 1.25 nM.

As to B3, the dissociation constant Kd is roughly 1.23 nM. B4: the Kd was roughly 1.25 nM. The result for B5 reads roughly 0.47 nM. The result for B6 reads roughly 0.39 nM. Molecule B7 yielded a dissociation constant (Kd) of roughly 1.26 nM. The result for B8 reads roughly 2.11 nM. The figure for B9 is roughly 0.44 nM; for B10 it is roughly 0.95 nM. The result for B11 reads roughly 0.67 nM; that for B12, roughly 0.45 nM.

B13 yielded a Kd of roughly 1.24 nM.

In turn, B14 showed a Kd of roughly 0.45 nM. On to B15, for which the Kd was roughly 0.85 nM.

With B16, the Kd was roughly 1.05 nM. Regarding B17, the dissociation constant (Kd) was roughly 1.16 nM.

As to B18, the dissociation constant Kd was roughly 0.66 nM. The figure for B19 is roughly 1.56 nM; for B20 it is roughly 0.42 nM. The figure for B21 is roughly 1.41 nM; for B22 it is roughly 0.61 nM; for B23 it is roughly 0.94 nM. B24 registered a Kd of roughly 0.33 nM. Turning to B25, the Kd was roughly 0.27 nM. B26 displayed an equilibrium dissociation constant (Kd) of roughly 0.23 nM. The result for B27 reads roughly 0.97 nM.

The record behind these values is US20240182547A1 (MOGAM INSTITUTE FOR BIOMEDICAL RESEARCH, published 2024).
